This note sets out measurements from paper PMC8568920, “Serum apolipoprotein A-I potentiates the therapeutic efficacy of lysocin E against Staphylococcus aureus” (Nature Communications, 2021).

For the series, the system named is S. aureus. The experiment in a line: Lysocin E antimicrobial activity-enhancing activity (1 unit decreases the MIC of lysocin E to 1 µg ml−1). Format: cell-based, Staphylococcus aureus. The following applies: ApoA species. The procedure: Calf serum (10 ml) was added to 15 ml EtOH (60% v/v) and the mixture was centrifuged for 15 min. The collected supernatant was evaporated and suspended in 8 ml Milli-Q water (fraction [fr.] II). Fr. II with formic acid (0.1%) was applied to 10 ml of ODS resin (Waters Corporation, Milford, MA, USA). After washing with 25% EtOH and then 50% EtOH, the resin was eluted with 75% EtOH containing 0.1% formic acid. The eluted sample was evaporated and dissolved in 0.8 ml buffer A (10 mM phosphate buffer [pH 7.1], 6 M urea; Fr. III). Fr. III was applied to the Superose 12 10/300 GL gel filtration column (GE Healthcare) and eluted with the AKTApurifier system (GE Healthcare). The elution was performed in buffer A at a flow rate of 0.5 ml min^−1 and 60 fractions (0.5 ml per fr.) were collected in 2-ml tubes. All fractions, except for Fr. I, were dialysed in 10 mM phosphate buffer (pH 7.1) before assessment of their activities. Protein concentrations were measured using Coomassie Plus^TM protein assay reagent (Thermo Fisher) with bovine serum albumin as the standard. Amino acid sequence analysis was performed by in-gel digestion and mass spectrometric analysis. One unit was defined as the activity that decreases the MIC of lysocin E to 1 µg ml^−1.

B1: rmApoA-I: recombinant mouse ApoA-I (protein, UniProt Q00623 25-264, looked up)
Apolipoprotein A-I: DEPQSQWDKVKDFANVYVDAVKDSGRDYVSQFESSSLGQQLNLNLLENWDTLGSTVSQLQERLGPLTRDFWDNLEKETDWVRQEMNKDLEEVKQKVQPYLDEFQKKWKEDVELYRQKVAPLGAELQESARQKLQELQGRLSPVAEEFRDRMRTHVDSLRTQLAPHSEQMRESLAQRLAELKSNPTLNEYHTRAKTHLKTLGEKARPALEDLRHSLMPMLETLKTQVQSVIDKASETLTAQ
As to B1, the “Specific activity for lysocin E antimicrobial enhancing activity” value is on record as 6400 unit mg-1 protein.
